{"source": "patent US20090304581A1", "target": "CD20 on Daudi cells (human) (UniProt P11836)", "sequence (P11836 whole entry)": "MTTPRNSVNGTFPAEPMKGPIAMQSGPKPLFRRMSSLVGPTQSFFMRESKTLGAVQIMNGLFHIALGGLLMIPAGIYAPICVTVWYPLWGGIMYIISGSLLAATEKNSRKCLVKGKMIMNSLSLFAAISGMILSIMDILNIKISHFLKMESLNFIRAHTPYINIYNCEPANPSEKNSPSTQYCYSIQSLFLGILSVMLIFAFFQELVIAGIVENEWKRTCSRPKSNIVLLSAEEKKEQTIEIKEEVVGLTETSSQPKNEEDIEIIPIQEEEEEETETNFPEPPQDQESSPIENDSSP", "assay": "live-cell radioimmunoreactivity assay on Daudi cells, cell pellet cpm over total cpm", "data": [{"substance": "SWNT-rituximab-111In*DOTA (antibody)", "values": [{"measurement": "maximum binding (immunoreactive fraction)", "result": 29, "unit": "%"}]}]}
